Data from PMC4334968.

Legend:
[1] = biological target: endogenous retromer (Vps26, Vps29, Vps35) (human (endogenous in HeLa and HaCaT)) (UniProt Q96QK1); experiment: proximity ligation
[2] = biological target: human retromer trimer assembled from Vps26, Vps29 and GST-tagged Vps35, Q96QK1;Q9UBQ0;O75436; experiment: pull-down on immobilized purified retromer trimer, anti-His immunoblot quantified; conditions: read off a plot

## HPV16 L2 double mutant (FYL/AAA and YYML/AAAA) with a carboxy-terminal 3xFLAG tag, in pseudovirus (from UniProt P03107 1-473) (natural protein)
[1]
  percent decrease of the PLA signal against wild-type PsV at eight hours: 70%

## Maltose binding protein (MBP)-L2-6His fusion protein, wild-type HPV16 L2 amino acids 434-457 F446A; Y447A; L448A
[2]; 5 µM MBP-L2, parent: est. 0.18
  ratio to parent: 0.2
[2]; 10 µM MBP-L2, parent: est. 1.0
  ratio to parent: 0.28

## Maltose binding protein (MBP)-L2-6His fusion protein, wild-type HPV16 L2 amino acids 434-457 F446A; Y447A; L448A; Y452A; Y453A; M454A; L455A
[2]; 5 µM MBP-L2, parent: est. 0.18
  ratio to parent: 0.17
[2]; 10 µM MBP-L2, parent: est. 1.0
  ratio to parent: 0.21

## Maltose binding protein (MBP)-L2-6His fusion protein, wild-type HPV16 L2 amino acids 434-457 Y452A; Y453A; M454A; L455A
[2]; 5 µM MBP-L2, parent: est. 0.18
  ratio to parent: 0.29
[2]; 10 µM MBP-L2, parent: est. 1.0
  ratio to parent: 0.38
